Measured values from the supplement of paper PMC9170038.

Key:
MS2 coat protein [1] = experiment: apparent KD of MS2 coat protein, switch OFF state (with FMN for OFF switches, without FMN for ON switches); designed switch direction (-1 OFF switch, 1 ON switch): 1; higher = weaker reporter binding; conditions: FMN input: 0 or 200 uM; Eterna round: R93 (includes R88 designs)
Outline: (§1)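 In 100 mM Tris-HCl pH 7.5 with 80 mM KCl and 4 mM MgCl2, and without or with constant ligand, SNAP-549-labelled MS2 coat protein was titrated in twofold steps from 0.7 or 1.5 nM to 3 µM. Per-step times went from 0.8–1.5 h down to 10–20 min. The RNA switches were transcribed on-chip from Illumina sequencing clusters, and apparent KD is the per-design median of normalised cluster binding-curve fits.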

MS2 coat protein [2] = experiment: apparent KD of MS2 coat protein, switch ON state; designed switch direction (-1 OFF switch, 1 ON switch): 1; higher = weaker reporter binding; conditions: FMN input: 0 or 200 uM; Eterna round: R93 (includes R88 designs)
Outline: as §1

GCAAAACAUGAGGAUCACCCAUGUGAAAAGAAUGUAGGAUAUGGGCUCAGAAAUAGCAGCCCAGAAGGGCGAAGAA [Xequamara]
apparent KD of MS2 coat protein (MS2 coat protein [1]): 24.8 nM | apparent KD of MS2 coat protein (MS2 coat protein [2]): 21.9 nM

GAAAAGAAAACACAGGAUAUCCAAAAGAAAACAUGAGGAUCACCCAUGUAAAGAAAAUAAAAAUGGGAGAAGGGUGAAAGAAAGA [Mat - Same State 2 - JL mod - D42]
apparent KD of MS2 coat protein (MS2 coat protein [1]): 53.6 nM | apparent KD of MS2 coat protein (MS2 coat protein [2]): 20.9 nM

CGGCUAAACGGGCAGGAUAUGUUCACUAGAACAUGAGGAUCACCCAUGUGAAACUGGCGAUAAUCGCAGAAGGGCCCGUGCACGA [Atensoin]
apparent KD of MS2 coat protein (MS2 coat protein [1]): 61.3 nM | apparent KD of MS2 coat protein (MS2 coat protein [2]): 17.6 nM

UUUAGUUGCGGGCAGGAUAUGUAUUAAAAUACAUGAGGAUCACCCAUGUGCGGGUAUAACACCCGACAGAAGGGCCAAUCGCGAC [Laonerce]
apparent KD of MS2 coat protein (MS2 coat protein [1]): 305 nM | apparent KD of MS2 coat protein (MS2 coat protein [2]): 18.3 nM

GAAAAACAUGAGGAUCACCCAUGUAGAAAUAUGGGAGGAUAUACAAAGACGAAAGUCAAAGUAGAAGGCCUGAUAG [JL S1 M-MoE mod 3]
apparent KD of MS2 coat protein (MS2 coat protein [1]): 79.2 nM | apparent KD of MS2 coat protein (MS2 coat protein [2]): 28.6 nM

AAAAAGAACACGCAGGAUAUGCAAAGAAACACAUGAGGAUCACCCAUGUCCAAAAACCCAAAAACGCAGAAGGGCGAAAAACCCA [Default title]
apparent KD of MS2 coat protein (MS2 coat protein [1]): 28.3 nM | apparent KD of MS2 coat protein (MS2 coat protein [2]): 25.6 nM

UGAGGACAUGAGGAUCACCCAUGUAGGCCACAAUCAGGAUAUGCAUUAAGGUACCUAAGAGUAGAAGGGAUUCGAG [SameState_Neo]
apparent KD of MS2 coat protein (MS2 coat protein [1]): 30.8 nM | apparent KD of MS2 coat protein (MS2 coat protein [2]): 34.9 nM

AAAAAACAUGAGGAUCACCCAUGUGCAAAAUUCGCAGGAUAUUUCUCAAUUAAAUGAGAGGAAGAAGGGUGAAAAA [Nob's Hobby 27 - Jieux - Same State 1]
apparent KD of MS2 coat protein (MS2 coat protein [1]): 99.3 nM | apparent KD of MS2 coat protein (MS2 coat protein [2]): 21.5 nM

AAAAACACAGUGCAGGAUAUGGUAAUAGUCACAUGAGGAUCACCCAUGUUCUUUUAUAAGAACGAUCAGAAGGGCGGUGAAAAAA [Mat - Same state - Malcolm Mod - D114]
apparent KD of MS2 coat protein (MS2 coat protein [1]): 155 nM | apparent KD of MS2 coat protein (MS2 coat protein [2]): 241 nM

AAUAGACAUGAGGAUCACCCAUGUGUAUAUGGGAGAGGAUAUACGGGACACAAGGGCGGAGUAGAAGGCUCGAGAC [Same Satate 1]
apparent KD of MS2 coat protein (MS2 coat protein [1]): 83.9 nM | apparent KD of MS2 coat protein (MS2 coat protein [2]): 68.2 nM

AAAUAAAUGACUAAGGAUAUAUCAAAAGAAACAUGAGGAUCACCCAUGUAAUAAUAAAAAGGGUGAUAGAAGGUAGUCAACAAAC [74%, More Paria 4]
apparent KD of MS2 coat protein (MS2 coat protein [1]): 115 nM | apparent KD of MS2 coat protein (MS2 coat protein [2]): 24.6 nM

AAAAAACAUGAGGAUCACCCAUGUCGAAAGACGUGAGGAUAUGUACAGACUUCGGUCUGUACAGAAGGCACAAAAA [SS1 - 1032]
apparent KD of MS2 coat protein (MS2 coat protein [1]): 208 nM | apparent KD of MS2 coat protein (MS2 coat protein [2]): 24.6 nM

UGAAGACAUGAGGAUCACCCAUGUGGGAAUAUGGGAGGAUAUACAAAGACGAGAGUCAGAGUAGAAGGCCUAGGAA [salish99-ss1-95]
apparent KD of MS2 coat protein (MS2 coat protein [1]): 114 nM | apparent KD of MS2 coat protein (MS2 coat protein [2]): 28.5 nM

AAGAAACAUGAGGAUCACCCAUGUGAUAAUAUGGGAGGAUAUACAAAGACGAAAGACGAAGUAGAAGGCCUAUGAA [Garnet 44]
apparent KD of MS2 coat protein (MS2 coat protein [1]): 124 nM | apparent KD of MS2 coat protein (MS2 coat protein [2]): 49 nM

AGGAAACAUGAGGAUCACCCAUGUAAAAAUAUGGGAGGAUAUACAAACAGGAAAGUGAGAGUAGAAGGCCUAAAAG [Garnet 19]
apparent KD of MS2 coat protein (MS2 coat protein [1]): 231 nM | apparent KD of MS2 coat protein (MS2 coat protein [2]): 42.4 nM

AAUAACAAAAGAAAGGAUAUAUAAACAGGAACAUGAGGAUCACCCAUGUGCCGCCAAGGCGGAUAAUAGAAGGUUCACAUGCAUA [Default title]
apparent KD of MS2 coat protein (MS2 coat protein [1]): 25.3 nM | apparent KD of MS2 coat protein (MS2 coat protein [2]): 47 nM

AUGAAAGUAACACAGGAUAUCGAGGAUACAACAUGAGGAUCACCCAUGUACAUACGAACGUAUAACGAGAAGGGUGGAUGAUCUUC [ss2]
apparent KD of MS2 coat protein (MS2 coat protein [1]): 62.8 nM | apparent KD of MS2 coat protein (MS2 coat protein [2]): 140 nM

CGAAAGGAGAGAGAGGAUAUCCAAAGGAAAACAUGAGGAUCACCCAUGUAGAAGGUAGGAGAUUGGGAGAAGGCUCAAGAGAGAC [salish99-ss2-148]
apparent KD of MS2 coat protein (MS2 coat protein [1]): 48.2 nM | apparent KD of MS2 coat protein (MS2 coat protein [2]): 24 nM

AGAAAUAAAAGAGAGGAUAUCCAAAAGAAAACAUGAGGAUCACCCAUGUAAAAGAAAAUAAAAUGGGAGAAGGCUCAAUAAAAGA [Modifying Jieux]
apparent KD of MS2 coat protein (MS2 coat protein [1]): 42 nM | apparent KD of MS2 coat protein (MS2 coat protein [2]): 17.9 nM

AGAAAACAUGAGGAUCACCCAUGUAGAAAUAUGGGAGGAUAUACAAAGACGAAAGUCAGAGUAGAAGGCCUAAAAA [salish99-SS1-085]
apparent KD of MS2 coat protein (MS2 coat protein [1]): 77.3 nM | apparent KD of MS2 coat protein (MS2 coat protein [2]): 14.6 nM

AAAAAACAUGAGGAUCACCCAUGUCAAAAGACGUGAGGAUAUGUACAGACUUCGGUCUGUACAGAAGGCAUGUAAA [SS1 - 1053]
apparent KD of MS2 coat protein (MS2 coat protein [1]): 144 nM | apparent KD of MS2 coat protein (MS2 coat protein [2]): 21.3 nM

GAAAAACAUGAGGAUCACCCAUGUAGAAAUAUGGGAGGAUAUACAAAGUCGAAAGACAAAGUAGAAGGCCUAAAAG [Mat - Same State 1 - Eli mod - D2]
apparent KD of MS2 coat protein (MS2 coat protein [1]): 67.1 nM | apparent KD of MS2 coat protein (MS2 coat protein [2]): 24.6 nM

AAUAAUUAUAUGGAGGAUAUCGGUAAUAAGACAUGAGGAUCACCCAUGUAAUAAGGUUAAAUAAACGAGAAGGCCAAGGGUGAAA [JR_SS002_Sub005]
apparent KD of MS2 coat protein (MS2 coat protein [1]): 234 nM | apparent KD of MS2 coat protein (MS2 coat protein [2]): 59.7 nM

GAAAAACAUGAGGAUCACCCAUGUGUAAACAUGGGAGGAUAUACGAAGACGUAAGUCAAAGUAGAAGGCCUAAAAG [Garnet 36]
apparent KD of MS2 coat protein (MS2 coat protein [1]): 24.9 nM | apparent KD of MS2 coat protein (MS2 coat protein [2]): 47.1 nM

UGGAGACAUGAGGAUCACCCAUGUGAGAAGAGGCGAGGAUAUCGAAAGAAAGAAGAGAAACGAGAAGGCGCGAGGU [salish99-SS1-036]
apparent KD of MS2 coat protein (MS2 coat protein [1]): 49.6 nM | apparent KD of MS2 coat protein (MS2 coat protein [2]): 34.4 nM

UAUCAUUACACGAAGGAUAUCGAUAAUUGAACAUGAGGAUCACCCAUGUGAUAUAUAAUACAGUUCGAGAAGGUCGAGGGUGAAG [JR_SS002_Sub704]
apparent KD of MS2 coat protein (MS2 coat protein [1]): 23.9 nM | apparent KD of MS2 coat protein (MS2 coat protein [2]): 17.8 nM

GAAAAACAUGAGGAUCACCCAUGUGAUAACAUGGGAGGAUAUACAAGGACGAUAGUCAAAGUAGAAGGCCUAAAAG [Garnet 61]
apparent KD of MS2 coat protein (MS2 coat protein [1]): 47.9 nM | apparent KD of MS2 coat protein (MS2 coat protein [2]): 289 nM

AUAAAUAAAAGUGAGGAUAUCCAAAAAAAAACAUGAGGAUCACCCAUGUAAAAGAAAAUAAAAUGGGAGAAGGCACAAAAUAAAU [SS2 M 10]
apparent KD of MS2 coat protein (MS2 coat protein [1]): 26.2 nM | apparent KD of MS2 coat protein (MS2 coat protein [2]): 11.9 nM

AGAAAUAAAAGAGAGGAUAUCCAAAAGAAAACAUGAGGAUCACCCAUGUAAAAGAAAAUAAAGUGGGAGAAGGCUCAAAAUAAGA [Jieux modified]
apparent KD of MS2 coat protein (MS2 coat protein [1]): 129 nM | apparent KD of MS2 coat protein (MS2 coat protein [2]): 16.4 nM

GAAAUACAUGAGGAUCACCCAUGUUAGGUGAUUCAAGGAUAUCAAGGUAAAUAAAAACCUUGAGAAGGUGAAUAAA [JR_SS001_Sub205]
apparent KD of MS2 coat protein (MS2 coat protein [1]): 163 nM | apparent KD of MS2 coat protein (MS2 coat protein [2]): 177 nM

AACAGGAAGAGAGAGGAUAUCCAAAGGAAAACAUGAGGAUCACCCAUGUAAAAGGUAGGAAAUUGGGAGAAGGCUCAAGAGAGAG [salish99-ss2-089]
apparent KD of MS2 coat protein (MS2 coat protein [1]): 47.3 nM | apparent KD of MS2 coat protein (MS2 coat protein [2]): 24.8 nM

AAGAAACAUGAGGAUCACCCAUGUAAGAUAAACACAGGAUAUGCGAAAAUAAACAAAUAAGCAGAAGGGUGAAAAG [Mat - Same State 1 - Tesla mod - 76]
apparent KD of MS2 coat protein (MS2 coat protein [1]): 19.3 nM | apparent KD of MS2 coat protein (MS2 coat protein [2]): 15.2 nM

AAAUAACAUGAGGAUCACCCAUGUUACGACGUUACAGGAUAUGUGGGUGAAAAUAGCAUGACAGAAGGGUACCGUA [SameState1 Malc#37]
apparent KD of MS2 coat protein (MS2 coat protein [1]): 60.3 nM | apparent KD of MS2 coat protein (MS2 coat protein [2]): 68.5 nM

AAUAUACAUGAGGAUCACCCAUGUUUUAAUAGCUGAGGAUAUACGGGUGAAAACAGCAUAGUAGAAGGCAGGUAUA [SameState1 Malc#7]
apparent KD of MS2 coat protein (MS2 coat protein [1]): 86.7 nM | apparent KD of MS2 coat protein (MS2 coat protein [2]): 27.6 nM

AAUAUACAUGAGGAUCACCCAUGUUAGGUGGGACUAGGAUAUCAAAAGAAAGAGUAAGAAUGAGAAGGAGUAGAAA [JR_SS001_Sub016]
apparent KD of MS2 coat protein (MS2 coat protein [1]): 240 nM | apparent KD of MS2 coat protein (MS2 coat protein [2]): 145 nM

AUAUGCAUAGACAAGGAUAUCGGUCUAGAAACAUGAGGAUCACCCAUGUAAGUGAAAAUCUGUAAUGAGAAGGUGUUGUUGGGUU [Isan]
apparent KD of MS2 coat protein (MS2 coat protein [1]): 89.4 nM | apparent KD of MS2 coat protein (MS2 coat protein [2]): 75 nM

AAAAAACAUGAGGAUCACCCAUGUCCUCACGUGCGAGGAUAUGGAUGGAAACCAUACUGUCCAGAAGGCGCAUGUA [EteRNA is fun!]
apparent KD of MS2 coat protein (MS2 coat protein [1]): 159 nM | apparent KD of MS2 coat protein (MS2 coat protein [2]): 230 nM

AAAAAACAUGAGGAUCACCCAUGUAAAAAAAUGGGAGGAUAUACAAAAACGAAAGAAAAAGUAGAAGGCCUGAAAA [same state 7]
apparent KD of MS2 coat protein (MS2 coat protein [1]): 159 nM | apparent KD of MS2 coat protein (MS2 coat protein [2]): 37.7 nM

AGGAGACAUGAGGAUCACCCAUGUGAGAAGAGGCGAGGAUAUCGAAAGAAAGAAGAGAAACGAGAAGGCGCGAGAG [salish99-SS1-025]
apparent KD of MS2 coat protein (MS2 coat protein [1]): 37.4 nM | apparent KD of MS2 coat protein (MS2 coat protein [2]): 28.4 nM
